In assay [1] the target is T1, human CEACAM6, full-length, on cells (human, UniProt P40199 35-320).
T1 construct: used both for transfected HeLa cells and for tumor cell lines that express CEACAM6 endogenously; also called TPP-4639; HeLa human CEACAM6
T1 sequence: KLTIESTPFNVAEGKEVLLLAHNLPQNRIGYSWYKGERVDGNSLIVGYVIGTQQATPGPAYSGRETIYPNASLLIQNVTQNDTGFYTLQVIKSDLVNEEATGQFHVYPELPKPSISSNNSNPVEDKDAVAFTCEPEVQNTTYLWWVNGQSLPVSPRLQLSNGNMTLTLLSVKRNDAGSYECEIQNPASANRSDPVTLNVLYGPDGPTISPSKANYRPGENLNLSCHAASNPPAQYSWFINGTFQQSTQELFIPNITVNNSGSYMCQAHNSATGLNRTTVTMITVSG
Description: FACS, transfected HeLa cells. Put shortly:
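Antibody binding to transfected HeLa cells was measured by FACS on a Canto II or FACS Array instrument. For half maximal binding (EC₅₀), primary antibodies were titrated from 0.1 nM to 100 nM. Median fluorescence intensity was plotted against log concentration, and curves were fitted in Graph Pad prism. Cells had been released with EDTA dissociation buffer and stained at 4° C.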
On the technique in general: A flow cytometer gives signals particle by particle.

For assay [2], the target named is T2, Macaca fascicularis CEACAM6, extracellular (mature form), obtained by Factor Xa cleavage of TPP-2443 (Macaca fascicularis).
T2 construct: used biotinylated in some assays; also called APP-319; Cynomolgus CEACAM6
T2 chain: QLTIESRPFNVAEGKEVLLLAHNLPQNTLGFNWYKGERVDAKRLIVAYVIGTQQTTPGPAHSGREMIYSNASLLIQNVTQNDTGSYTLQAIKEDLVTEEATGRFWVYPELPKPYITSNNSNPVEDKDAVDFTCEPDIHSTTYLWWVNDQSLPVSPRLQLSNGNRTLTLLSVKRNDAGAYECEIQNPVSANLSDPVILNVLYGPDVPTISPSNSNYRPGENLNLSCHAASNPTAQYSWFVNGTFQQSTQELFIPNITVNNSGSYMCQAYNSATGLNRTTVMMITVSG
Description: SPR, antibody captured, antigen as analyte. The method, then: (§1) Surface plasmon resonance (SPR) experiments for quantitative binding analyses were performed either using a Biacore T100, Biacore T200 or a Biacore 4000 instrument (GE Healthcare Biacore, Inc.) equipped with Series S Sensor Chips CM5 (GE Healthcare Biacore, Inc.). Binding assays were carried out at 25° C. with assay buffer HBS-EP+(10 mM HEPES pH 7.4, 150 mM NaCl, 3 mM EDTA, 0.05% Surfactant P20). Antibodies were captured with an anti-hIgG capture antibody covalently immobilized to the chip surface via amine coupling chemistry. Reagents for amine coupling (1-ethyl-3-(3-dimethylaminopropyl) carbodiimide hydrochloride (EDC), N-hydroxysuccinimide (NHS), ethanolamine-HCl pH 8.5) were used from the Amine Coupling Kit (GE Healthcare, product code BR-1000-50). Anti-hIgG, anti-mIgG capture antibodies and immobilization buffer (10 mM sodium acetate pH 5.0) were used from the Human Antibody Capture Kit (GE Healthcare, BR-1008-39) and the Mouse Antibody Capture Kit (GE Healthcare, BR-1008-38), respectively. The sensor chip surface was activated with a freshly prepared solution of 0.2 M EDC and 0.05 M NHS passed over the chip surface for 420 s at a flow rate of 10 μl/min, followed by an injection of anti-hIgG or anti-mIgG capture antibody (dissolved to 25 μg/ml in immobilization buffer) for 180 s at a flow rate of […]. Excess of activated groups were blocked with a 1 molar solution of ethanolamine injected at a flow rate of 10 μl/min for 420 s.
(§2) CEACAM antigens were used as analyte to determine KD values. Antibodies were captured for 20 s at a flow rate of 10 μl/min prior to each analyte injection.
(§3) Obtained sensorgrams were double-referenced, i.e. in-line reference cell correction followed by buffer sample subtraction.
A general note: SPR reads the build-up and loss of mass on a sensor chip optically.

The target of assay [3] is T3, human CEACAM3, extracellular (mature form), Sino Biological Inc. 11933-H08H (human, UniProt P40198 35-155).
T3 construct: used biotinylated in some assays; also called TPP-2755
T3 sequence: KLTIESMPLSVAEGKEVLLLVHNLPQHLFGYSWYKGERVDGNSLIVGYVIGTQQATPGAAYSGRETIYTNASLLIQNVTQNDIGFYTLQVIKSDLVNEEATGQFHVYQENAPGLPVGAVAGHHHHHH
The assay is described as follows: SPR, antibody captured, antigen as analyte. The method, then:
as §1, §2, §3

Assay [4] deals with T4, human CEACAM5, extracellular (mature form), R&D Systems 4128-CM (human, UniProt P06731 35-685).
T4 construct: used biotinylated in some assays; also called TPP-1438; hC5
T4 sequence: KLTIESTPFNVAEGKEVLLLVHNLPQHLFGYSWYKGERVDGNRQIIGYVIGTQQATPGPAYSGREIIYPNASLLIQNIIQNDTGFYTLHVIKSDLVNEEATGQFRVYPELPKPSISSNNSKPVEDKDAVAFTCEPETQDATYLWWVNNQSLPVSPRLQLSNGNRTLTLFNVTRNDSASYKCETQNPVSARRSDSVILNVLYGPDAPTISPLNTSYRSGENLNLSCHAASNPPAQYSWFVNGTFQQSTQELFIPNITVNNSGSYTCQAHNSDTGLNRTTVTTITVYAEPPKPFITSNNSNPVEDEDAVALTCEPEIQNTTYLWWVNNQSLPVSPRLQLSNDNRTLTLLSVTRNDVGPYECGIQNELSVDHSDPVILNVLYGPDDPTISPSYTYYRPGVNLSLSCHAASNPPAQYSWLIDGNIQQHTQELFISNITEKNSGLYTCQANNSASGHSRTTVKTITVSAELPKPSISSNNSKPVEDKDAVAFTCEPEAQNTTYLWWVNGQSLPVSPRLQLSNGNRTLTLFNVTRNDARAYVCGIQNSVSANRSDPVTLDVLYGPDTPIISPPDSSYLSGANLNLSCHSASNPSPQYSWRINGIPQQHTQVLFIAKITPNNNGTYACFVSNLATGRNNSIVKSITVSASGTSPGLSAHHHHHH
Description: SPR, antibody captured, antigen as analyte. The method, then: as §1, §2, §3

Here are results for one molecule from patent publication US20200181261A1 (Bayer, published 2020).

One may read the EC50 as the concentration giving half of the maximal effect. By Kd is commonly meant the equilibrium constant for the complex coming apart. Low values mean tighter binding, high ones weaker binding.

B1: TPP-3714 (antibody, human IgG2, kappa)
heavy: QVTLRESGPALVKPTQTLTLTCTFSGFSLSTYGIGVGWIRQPPGKALEWLAHIWWNDNKYYSTSLKTRLTISKDTSKNQVVLTMTNMDPVDTATYYCARISLPYFDYWGQGTLVTVSSASTKGPSVFPLAPCSRSTSESTAALGCLVKDYFPEPVTVSWNSGALTSGVHTFPAVLQSSGLYSLSSVVTVPSSNFGTQTYTCNVDHKPSNTKVDKTVERKCCVECPPCPAPPVAGPSVFLFPPKPKDTLMISRTPEVTCVVVDVSHEDPEVQFNWYVDGVEVHNAKTKPREEQFNSTFRVVSVLTVVHQDWLNGKEYKCKVSNKGLPAPIEKTISKTKGQPREPQVYTLPPSREEMTKNQVSLTCLVKGFYPSDIAVEWESNGQPENNYKTTPPMLDSDGSFFLYSKLTVDKSRWQQGNVFSCSVMHEALHNHYTQKSLSLSPG
light: DIQLTQSPSFLSASVGDRVTITCKASQNVGTAVAWYQQKPGKAPKLLIYSASNRYTGVPSRFSGSGSGTEFTLTISSLQPEDFATYYCQQYSSYPLTFGGGTKVEIKRTVAAPSVFIFPPSDEQLKSGTASVVCLLNNFYPREAKVQWKVDNALQSGNSQESVTEQDSKDSTYSLSSTLTLSKADYEKHKVYACEVTHQGLSSPVTKSFNRGEC
notes: humanized from TPP-2971, human IgG2; also called TPP-2971HU2-hIgG2Kappa
The molecule B1 gave an EC50 in assay [1] of 1 nM. Further, the Kd in assay [2] is 27 nM. Moreover, the binding result in assay [3] and in assay [4] was “no binding (tested: 200 nM)” in each case.
